Measured values taken from patent US8840891 (RSR, dated 2014).
Like-named read-outs stand apart in the source and are kept apart here. Blank lines part the entries; values can stand above or below the molecule they belong to.

Experiments:
[1] = molecular target: wild type human TSHR (human) (UniProt P16473); experiment: cell-based or functional assay
[2] = molecular target: TSHR with Arg80 mutated to Aspartic acid (human) (UniProt P16473); experiment: cell-based or functional assay
[3] = molecular target: TSHR coated onto tubes (human) (UniProt P16473); experiment: TSHR coated tubes, competitor 125I-5C9 IgG
[4] = molecular target: wild type human TSHR (human) (UniProt P16473); experiment: cell-based or functional assay; remark: listed apart in the source
[5] = molecular target: TSHR with Trp258 mutated to Alanine (human) (UniProt P16473); experiment: cell-based or functional assay
[6] = molecular target: TSHR with activating mutation S281I expressed on CHO cells (human) (UniProt P16473); experiment: cell-based or functional assay
[7] = molecular target: wild type human TSHR (thyrotropin receptor) expressed on CHO cells (human) (UniProt P16473); experiment: cell-based or functional assay
[8] = molecular target: TSHR with Glu61 mutated to Alanine expressed on CHO cells (human) (UniProt P16473); experiment: cell-based or functional assay
[9] = molecular target: wild type human TSHR (thyrotropin receptor) expressed on CHO cells (human) (UniProt P16473); experiment: cell-based or functional assay; remark: listed apart in the source

Molecule: 5C9 IgG (antibody)
cyclic AMP; 5C9 0.01 µg/mL + TSH (fmol/cell well) [1]: 13100 | cyclic AMP; 5C9 0.1 µg/mL + TSH (fmol/cell well) [1]: 6330 | cyclic AMP; 5C9 1.0 µg/mL + TSH (fmol/cell well) [1]: 2640 | cyclic AMP; 5C9 10 µg/mL + TSH (fmol/cell well) [1]: 1910 | cyclic AMP; 5C9 100 µg/mL + TSH (fmol/cell well) [1]: 1610 | cyclic AMP; 5C9 100 µg/mL only (fmol/cell well) [1]: 300 | Mutated/wild type (%); 5C9 0.01 µg/mL + TSH [2]: 161% | Mutated/wild type (%); 5C9 0.1 µg/mL + TSH [2]: 70% | Mutated/wild type (%); 5C9 1.0 µg/mL + TSH [2]: 73% | Mutated/wild type (%); 5C9 10 µg/mL + TSH [2]: 66% | Mutated/wild type (%); 5C9 100 µg/mL + TSH [2]: 79% | Mutated/wild type (%); 5C9 100 µg/mL only [2]: 174% | cyclic AMP; 5C9 0.01 µg/mL + TSH (fmol/cell well) [2]: 21000 | cyclic AMP; 5C9 0.1 µg/mL + TSH (fmol/cell well) [2]: 4420 | cyclic AMP; 5C9 1.0 µg/mL + TSH (fmol/cell well) [2]: 1910 | cyclic AMP; 5C9 10 µg/mL + TSH (fmol/cell well) [2]: 1250 | cyclic AMP; 5C9 100 µg/mL + TSH (fmol/cell well) [2]: 1270 | cyclic AMP; 5C9 100 µg/mL only (fmol/cell well) [2]: 523 | % inhib of 125I-5C9 IgG binding at 0.01 µg/mL [3]: 0% | % inhib of 125I-5C9 IgG binding at 0.1 µg/mL [3]: 10% | % inhib of 125I-5C9 IgG binding at 1 µg/mL [3]: 27% | % inhib of 125I-5C9 IgG binding at 10 µg/mL [3]: 42% | % inhib of 125I-5C9 IgG binding at 100 µg/mL [3]: 65.5% | cyclic AMP; 5C9 0.01 µg/mL + TSH (fmol/cell well) [4]: 19500 | cyclic AMP; 5C9 0.1 µg/mL + TSH (fmol/cell well) [4]: 10500 | cyclic AMP; 5C9 1.0 µg/mL + TSH (fmol/cell well) [4]: 2620 | cyclic AMP; 5C9 10 µg/mL + TSH (fmol/cell well) [4]: 1190 | cyclic AMP; 5C9 100 µg/mL + TSH (fmol/cell well) [4]: 1320 | cyclic AMP; 5C9 100 µg/mL only (fmol/cell well) [4]: 211 | Mutated/wild type (%); 5C9 0.01 µg/mL + TSH [5]: 34% | Mutated/wild type (%); 5C9 0.1 µg/mL + TSH [5]: 19% | Mutated/wild type (%); 5C9 1.0 µg/mL + TSH [5]: 43% | Mutated/wild type (%); 5C9 10 µg/mL + TSH [5]: 30% | Mutated/wild type (%); 5C9 100 µg/mL + TSH [5]: 37% | Mutated/wild type (%); 5C9 100 µg/mL only [5]: 200% | cyclic AMP; 5C9 0.01 µg/mL + TSH (fmol/cell well) [5]: 6620 | cyclic AMP; 5C9 0.1 µg/mL + TSH (fmol/cell well) [5]: 1940 | cyclic AMP; 5C9 1.0 µg/mL + TSH (fmol/cell well) [5]: 1130 | cyclic AMP; 5C9 10 µg/mL + TSH (fmol/cell well) [5]: 357 | cyclic AMP; 5C9 100 µg/mL + TSH (fmol/cell well) [5]: 484 | cyclic AMP; 5C9 100 µg/mL only (fmol/cell well) [5]: 423

Cyclic AMP concentration (basal) in the presence of 5C9 IgG (1 µg/mL) (fmol/cell well) [6]: 655 | Cyclic AMP concentration (basal) in the presence of 5C9 IgG (1 µg/mL) (fmol/cell well) [7]: 1870 | Cyclic AMP produced; 5C9 0.01 µg/mL + TSH (fmol/cell well) [7]: 13100 | Cyclic AMP produced; 5C9 0.1 µg/mL + TSH (fmol/cell well) [7]: 7810 | Cyclic AMP produced; 5C9 1.0 µg/mL + TSH (fmol/cell well) [7]: 2020 | Cyclic AMP produced; 5C9 10 µg/mL + TSH (fmol/cell well) [7]: 306 | Cyclic AMP produced; 5C9 100 µg/mL + TSH (fmol/cell well) [7]: 84 | Cyclic AMP produced; 5C9 100 µg/mL only (fmol/cell well) [7]: 47 | Cyclic AMP produced; Experiment 1; 5C9 0.01 µg/mL + TSH (fmol/cell well) [7]: 17000 | Cyclic AMP produced; Experiment 1; 5C9 0.1 µg/mL + TSH (fmol/cell well) [7]: 5950 | Cyclic AMP produced; Experiment 1; 5C9 1.0 µg/mL + TSH (fmol/cell well) [7]: 1060 | Cyclic AMP produced; Experiment 1; 5C9 10 µg/mL + TSH (fmol/cell well) [7]: 496 | Cyclic AMP produced; Experiment 1; 5C9 100 µg/mL + TSH (fmol/cell well) [7]: 193 | Cyclic AMP produced; Experiment 1; 5C9 100 µg/mL only (fmol/cell well) [7]: 1270 | Cyclic AMP produced; Experiment 2; 5C9 0.01 µg/mL + TSH (fmol/cell well) [7]: 18600 | Cyclic AMP produced; Experiment 2; 5C9 0.1 µg/mL + TSH (fmol/cell well) [7]: 4220 | Cyclic AMP produced; Experiment 2; 5C9 1.0 µg/mL + TSH (fmol/cell well) [7]: 738 | Cyclic AMP produced; Experiment 2; 5C9 10 µg/mL + TSH (fmol/cell well) [7]: 214 | Cyclic AMP produced; Experiment 2; 5C9 100 µg/mL + TSH (fmol/cell well) [7]: 238 | Cyclic AMP produced; Experiment 2; 5C9 100 µg/mL only (fmol/cell well) [7]: 211 | Cyclic AMP produced; 5C9 0.01 µg/mL + TSH (fmol/cell well) [8]: 18000 | Cyclic AMP produced; 5C9 0.1 µg/mL + TSH (fmol/cell well) [8]: 2110 | Cyclic AMP produced; 5C9 1.0 µg/mL + TSH (fmol/cell well) [8]: 766 | Cyclic AMP produced; 5C9 10 µg/mL + TSH (fmol/cell well) [8]: 346 | Cyclic AMP produced; 5C9 100 µg/mL + TSH (fmol/cell well) [8]: 328 | Cyclic AMP produced; 5C9 100 µg/mL only (fmol/cell well) [8]: 254 | Mutated/wild type (%); 5C9 0.01 µg/mL + TSH [8]: 131% | Mutated/wild type (%); 5C9 0.1 µg/mL + TSH [8]: 73% | Mutated/wild type (%); 5C9 1.0 µg/mL + TSH [8]: 143% | Mutated/wild type (%); 5C9 10 µg/mL + TSH [8]: 136% | Mutated/wild type (%); 5C9 100 µg/mL + TSH [8]: 162% | Mutated/wild type (%); 5C9 100 µg/mL only [8]: 117% | Cyclic AMP produced; 5C9 0.01 µg/mL + TSH (fmol/cell well) [9]: 13800 | Cyclic AMP produced; 5C9 0.1 µg/mL + TSH (fmol/cell well) [9]: 2890 | Cyclic AMP produced; 5C9 1.0 µg/mL + TSH (fmol/cell well) [9]: 536 | Cyclic AMP produced; 5C9 10 µg/mL + TSH (fmol/cell well) [9]: 254 | Cyclic AMP produced; 5C9 100 µg/mL + TSH (fmol/cell well) [9]: 202 | Cyclic AMP produced; 5C9 100 µg/mL only (fmol/cell well) [9]: 218
B1: 5C9 IgG (human monoclonal autoantibody to the TSHR) (antibody, from another filing, V domains shown)
VH: EVQLVESGGGLIQPGGSLRLSCAASGFTVSSNYMSWVRQAPGKGLEWVSVTYSGGSTSYADSVKGRFTISRDNSKNTLYLQMNSLRAEDTAVYYCARGGRYCSSISCYARSGCDYWGQGTLVTVSS
VL: AIQMTQSPSSLSASVGDRVTITCRASQSISNYLNWYQQKPGKAPKLLIYAASSLQSGVPSRFSGSGSGTDFTLTISSLQPEDFATYYCQQSYSSPSTTFGQGTKLEIK
